Results on 1 substance are retold here after PMC7693302.

The target of this assay is S2 domain of SARS-CoV-2 S protein (from S protein with FLAG at both N- and C-termini) (SARS-CoV-2). Kind of assay: co-sedimentation.

With “S1 domain of S^G614 (from S protein with FLAG at both N- and C-termini) (domain or fragment)”, the fold S1:S2 ratio against PV^D614 turned out to be 3.5 fold.
